One series has as its target T1, TTF-1 full length (UniProt P23441).
T1 sequence: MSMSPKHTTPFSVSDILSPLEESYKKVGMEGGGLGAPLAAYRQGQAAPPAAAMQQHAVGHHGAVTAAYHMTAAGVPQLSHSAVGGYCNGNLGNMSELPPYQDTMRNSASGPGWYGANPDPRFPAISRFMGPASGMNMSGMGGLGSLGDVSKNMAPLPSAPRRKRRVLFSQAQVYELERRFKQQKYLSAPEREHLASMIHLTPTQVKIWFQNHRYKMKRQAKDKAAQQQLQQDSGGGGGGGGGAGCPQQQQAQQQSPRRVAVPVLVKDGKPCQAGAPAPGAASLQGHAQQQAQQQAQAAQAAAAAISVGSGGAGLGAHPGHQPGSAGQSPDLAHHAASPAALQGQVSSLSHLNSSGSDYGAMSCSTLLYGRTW
Put plainly: cell_activity. To be noted: SV40-P F + pCMV-TTF-1 in H441, relative to SV40-P =1 (3.5 without TTF-1).

Series [1] deals with T2, TTF-1 homeodomain (TTF-1 HD) (Rattus norvegicus, UniProt P23441 P23441:161-220).
T2 sequence: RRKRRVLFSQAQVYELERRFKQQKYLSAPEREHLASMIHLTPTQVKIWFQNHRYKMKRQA
Put plainly: EMSA. Particulars: tags: bacterially expressed homeodomain fragment; label: 32P. Background: In EMSA bound probe runs differently from free probe, usually more slowly.

Series [2] deals with T2, TTF-1 homeodomain (TTF-1 HD). Description: EMSA; two complexes A' and B'; on ice, 5 mM MgCl2. To be noted: tags: bacterially expressed homeodomain fragment; label: 32P. How it is done:
The electrophoretic mobility shift assay (EMSA) was adapted from Hennighausen and Lubon, Meth. Enzymol., Vol. 152, pgs. 727-735 (1987). Briefly, nuclear extract (1-2 μl) and, when indicated, unlabeled oligonucleotide competitor DNA were preincubated in 20 μl Buffer C (12 mM HEPES, pH 7.9; 4 mM Tris-Cl pH 7.9; 25 mM KCl; 5 mM MgCl₂; 1 mM EDTA; 1 mM DTT; 50 ng μl⁻¹ poly[d(I-C)], Boehringer Mannheim; 0.2 mM fresh PMSF) for 10 minutes on ice. Probe (100,000 dpm) was added and incubated an additional 20 minutes on ice. For antibody supershift and interference assays, 1 μl of antibody was added after the addition of probe and incubated an additional 20 minutes on ice. TTF-1 antibody is described in Lazzaro et al., Development, Vol. 113, pgs. 1093-1104 (1991). HNF-3α, β, and γ antibodies were kindly provided by Dr. J. E. Darnell, Jr. (Lai et al., Genes and Devel., Vol. 5, pgs. 416-427 (1991)). Recombinant, bacterially expressed TTF-1 homeodomain protein (TTF-1 HD) is described in Guazzi et al., EMBO J., Vol. 9, pgs. 3631-3639 (1990). Assays were performed using 1 μl TTF-1 HD in place of nuclear extract. Bound and free probe were resolved using non-denaturing polyacrylamide gel electrophoresis. […]

The text below walks through data of patent US20010016352, “NUCLEIC ACID SEQUENCES CONTROLLING LUNG CELL-SPECIFIC GENE EXPRESSION” (published 2001).

“CAGGGCTTGCCCTGGGTTAAGAGCCAGGCAGGAAGCTCTCAAGAGCATTGCTCAGAGGGGGCCTGGGTGGCCCAGGGAGGGGATGCGAGGGGAACACCCAGGC (double strand) [hSP-B -439/-331 enhancer]”: the activity with TTF-1 full length was found to be 8.3 fold.

B1: Ba wild type (dsDNA)
DNA 1: CAGGGCTTGCCCTGGGTTAAGAGCCAGGCA
DNA 2: TGCCTGGCTCTTAACCCAGGGCAAGCCCTG
As for B1, the binding result in series [1] is “binds”.

B2: SPB-f1 (dsDNA)
DNA 1: AGCACCTGGAGGGCTCTTCAGAGC
DNA 2: GCTCTGAAGAGCCCTCCAGGTGCT
For the molecule B2, the binding result in series [2] was “binds”.
